Columns and labels:
Assay in all cases: EC50 of free RNA motif oligo competing protein binding to immobilised probe
SRSF11 = biological target: T1, SRSF11 (UniProt Q05519)
T1 sequence: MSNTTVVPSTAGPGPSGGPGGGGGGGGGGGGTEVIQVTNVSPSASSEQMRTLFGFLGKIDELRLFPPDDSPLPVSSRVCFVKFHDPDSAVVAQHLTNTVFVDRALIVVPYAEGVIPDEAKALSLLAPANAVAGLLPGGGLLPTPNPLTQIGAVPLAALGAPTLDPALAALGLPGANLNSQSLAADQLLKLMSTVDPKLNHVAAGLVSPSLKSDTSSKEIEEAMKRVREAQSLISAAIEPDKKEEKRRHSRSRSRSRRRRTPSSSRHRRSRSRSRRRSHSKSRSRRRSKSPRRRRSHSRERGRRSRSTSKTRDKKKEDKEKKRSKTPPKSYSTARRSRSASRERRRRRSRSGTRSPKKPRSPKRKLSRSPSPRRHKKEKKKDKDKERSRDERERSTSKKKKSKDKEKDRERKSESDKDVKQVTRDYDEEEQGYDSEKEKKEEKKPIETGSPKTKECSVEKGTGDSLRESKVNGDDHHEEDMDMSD
Outline: (§1)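 Kd was calculated as EC50, taken from a four-parameter log-logistic fit, multiplied by a protein-dependent depletion factor. The assay used HEK293-FT lysate (2.5 mg protein/well) pre-incubated for 1 h at 4°C with free RNA oligos (0 nM to 30 μM), then incubated for 30 min at 4°C with the matching oligos bound through a 5′-amino-C6 linker to NHS-Sepharose beads. Bound proteins were measured by label-free LC-MS/MS and normalised to the control.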

P4HA1 = P4HA1 (UniProt P13674)
Chain of P4HA1 (P13674 whole entry): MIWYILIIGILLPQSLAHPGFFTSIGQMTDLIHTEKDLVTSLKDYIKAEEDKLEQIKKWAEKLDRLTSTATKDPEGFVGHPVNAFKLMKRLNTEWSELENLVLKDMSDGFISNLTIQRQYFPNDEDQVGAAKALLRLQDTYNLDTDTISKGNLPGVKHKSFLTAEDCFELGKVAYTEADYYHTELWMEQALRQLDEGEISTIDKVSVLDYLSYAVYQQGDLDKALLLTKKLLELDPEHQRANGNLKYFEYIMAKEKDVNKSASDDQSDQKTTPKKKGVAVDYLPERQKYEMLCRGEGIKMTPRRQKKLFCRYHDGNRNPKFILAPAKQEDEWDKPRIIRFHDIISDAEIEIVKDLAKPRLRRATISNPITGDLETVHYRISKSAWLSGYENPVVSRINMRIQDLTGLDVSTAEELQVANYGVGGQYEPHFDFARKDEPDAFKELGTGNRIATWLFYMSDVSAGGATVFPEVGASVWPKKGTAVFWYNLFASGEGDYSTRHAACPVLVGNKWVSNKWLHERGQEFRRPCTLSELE
Outline: as §1

RPS17 = RPS17 (UniProt P08708)
Outline: as §1

TUBB4B = TUBB4B (UniProt P68371)
Chain of TUBB4B (P68371 whole entry): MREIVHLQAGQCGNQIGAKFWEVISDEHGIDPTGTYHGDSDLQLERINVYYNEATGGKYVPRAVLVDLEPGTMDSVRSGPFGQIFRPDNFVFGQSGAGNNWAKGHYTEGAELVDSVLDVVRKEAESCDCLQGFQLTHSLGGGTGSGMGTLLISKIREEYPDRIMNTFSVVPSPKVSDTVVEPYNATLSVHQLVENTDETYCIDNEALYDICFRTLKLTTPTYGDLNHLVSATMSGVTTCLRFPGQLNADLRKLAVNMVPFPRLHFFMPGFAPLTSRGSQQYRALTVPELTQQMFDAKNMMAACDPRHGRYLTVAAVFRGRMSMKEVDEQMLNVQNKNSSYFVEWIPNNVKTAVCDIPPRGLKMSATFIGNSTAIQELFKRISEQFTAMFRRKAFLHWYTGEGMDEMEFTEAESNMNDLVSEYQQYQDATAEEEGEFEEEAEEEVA
Outline: as §1

RPL7 = RPL7 (UniProt P18124)
Outline: as §1

CXorf57 = CXorf57 (UniProt Q6NSI4)
Chain of CXorf57 (Q6NSI4 whole entry): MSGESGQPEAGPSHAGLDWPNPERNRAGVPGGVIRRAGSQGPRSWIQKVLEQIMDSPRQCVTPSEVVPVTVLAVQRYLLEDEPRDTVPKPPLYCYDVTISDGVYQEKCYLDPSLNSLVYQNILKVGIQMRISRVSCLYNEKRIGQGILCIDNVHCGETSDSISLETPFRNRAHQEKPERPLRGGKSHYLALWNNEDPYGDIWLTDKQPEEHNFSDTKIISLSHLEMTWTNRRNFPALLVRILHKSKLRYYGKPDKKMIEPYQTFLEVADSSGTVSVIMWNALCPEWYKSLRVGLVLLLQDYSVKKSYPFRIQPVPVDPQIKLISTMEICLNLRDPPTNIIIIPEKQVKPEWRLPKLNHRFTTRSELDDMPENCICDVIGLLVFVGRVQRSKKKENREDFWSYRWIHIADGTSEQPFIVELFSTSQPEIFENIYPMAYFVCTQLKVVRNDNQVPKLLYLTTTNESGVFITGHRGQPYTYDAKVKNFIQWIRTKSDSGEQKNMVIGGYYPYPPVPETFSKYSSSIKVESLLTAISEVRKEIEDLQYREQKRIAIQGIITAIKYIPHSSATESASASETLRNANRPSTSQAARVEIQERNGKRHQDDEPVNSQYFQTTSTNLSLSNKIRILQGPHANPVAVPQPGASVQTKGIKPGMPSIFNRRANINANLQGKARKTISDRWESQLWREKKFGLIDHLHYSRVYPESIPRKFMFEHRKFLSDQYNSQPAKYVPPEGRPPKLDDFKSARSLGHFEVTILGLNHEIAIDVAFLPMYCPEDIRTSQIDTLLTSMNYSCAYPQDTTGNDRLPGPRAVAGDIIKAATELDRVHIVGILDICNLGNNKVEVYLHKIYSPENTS
Outline: as §1

RBM47 = biological target: T2, RBM47 (UniProt A0AV96)
T2 sequence: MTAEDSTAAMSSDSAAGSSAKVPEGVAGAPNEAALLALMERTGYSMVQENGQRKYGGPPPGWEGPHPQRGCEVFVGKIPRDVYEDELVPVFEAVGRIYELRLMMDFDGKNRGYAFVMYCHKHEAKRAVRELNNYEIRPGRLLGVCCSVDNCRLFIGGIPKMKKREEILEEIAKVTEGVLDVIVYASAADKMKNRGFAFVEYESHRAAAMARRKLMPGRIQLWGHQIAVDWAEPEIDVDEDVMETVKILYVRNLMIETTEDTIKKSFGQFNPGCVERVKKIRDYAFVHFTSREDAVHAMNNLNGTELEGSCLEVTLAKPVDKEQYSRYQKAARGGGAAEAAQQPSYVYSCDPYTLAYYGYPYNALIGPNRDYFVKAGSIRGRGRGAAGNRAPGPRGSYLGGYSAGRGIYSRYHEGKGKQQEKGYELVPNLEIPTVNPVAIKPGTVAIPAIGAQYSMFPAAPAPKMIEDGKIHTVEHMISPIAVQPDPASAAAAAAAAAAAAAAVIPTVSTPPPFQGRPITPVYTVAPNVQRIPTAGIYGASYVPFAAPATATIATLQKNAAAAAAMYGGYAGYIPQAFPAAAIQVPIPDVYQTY
Outline: as §1

CSNK2A1 = CSNK2A1 (UniProt P68400)
Chain of CSNK2A1 (P68400 whole entry, looked up): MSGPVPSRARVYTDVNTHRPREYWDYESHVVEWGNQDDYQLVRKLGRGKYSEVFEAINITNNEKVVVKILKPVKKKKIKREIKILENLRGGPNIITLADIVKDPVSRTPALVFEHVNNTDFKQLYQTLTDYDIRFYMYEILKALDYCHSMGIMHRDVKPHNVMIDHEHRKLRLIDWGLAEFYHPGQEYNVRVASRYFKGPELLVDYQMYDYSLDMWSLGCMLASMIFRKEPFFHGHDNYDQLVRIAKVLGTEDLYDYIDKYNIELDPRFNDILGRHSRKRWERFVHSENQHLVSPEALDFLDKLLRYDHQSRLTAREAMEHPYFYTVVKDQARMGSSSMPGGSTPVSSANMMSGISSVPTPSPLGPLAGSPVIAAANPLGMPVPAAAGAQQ
Outline: as §1

MRPL13 = MRPL13 (UniProt Q9BYD1)
Outline: as §1

MRPL53 = MRPL53 (UniProt Q96EL3)
Outline: as §1

RPS14 = RPS14 (UniProt P62263)
Outline: as §1

HNRNPA0 = biological target: T3, HNRNPA0 (UniProt Q13151)
T3 sequence: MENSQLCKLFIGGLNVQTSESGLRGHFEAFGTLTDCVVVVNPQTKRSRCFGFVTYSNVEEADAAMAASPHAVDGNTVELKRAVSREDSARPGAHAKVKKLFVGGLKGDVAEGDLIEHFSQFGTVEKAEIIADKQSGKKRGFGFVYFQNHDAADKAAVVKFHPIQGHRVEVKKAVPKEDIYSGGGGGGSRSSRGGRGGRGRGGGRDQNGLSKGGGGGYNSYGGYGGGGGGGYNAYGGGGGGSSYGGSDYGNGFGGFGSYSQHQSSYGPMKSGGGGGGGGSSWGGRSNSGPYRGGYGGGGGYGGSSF
Outline: as §1

DAP3 = DAP3 (UniProt P51398)
Outline: as §1

AAUAAA
EC50 (SRSF11): 1110 nM | EC50 (P4HA1): 65.6 nM | EC50 (RPS17): 128 nM | EC50 (TUBB4B): 1410 nM | EC50 (RPL7): 6980 nM | EC50 (CXorf57): 3560 nM | EC50 (RBM47): 3730 nM | EC50 (CSNK2A1): 124 nM

CUGUCCU
EC50 (MRPL13): 194 nM | EC50 (MRPL53): 103 nM | EC50 (RPS14): 180 nM

UAUUUAU
EC50 (HNRNPA0): 4860 nM | EC50 (DAP3): 51.4 nM

From the supplement of paper PMC6379048
